Results taken from US20040037830A1.

Molecular target: IL-8 receptors on human neutrophils
Experiment: 125I-IL-8 competition with unlabelled IL-8, Scatchard analysis, human neutrophils

binding sites/cell (binding sites/cell): 31000
Substance: human 72 amino acid IL-8 (interleukin-8), recombinant, made in E. coli (from UniProt P10145 28-99) (ligand)
